According to publication PMC7078148, “Interactions of 17β-Hydroxysteroid Dehydrogenase Type 10 and Cyclophilin D in Alzheimer's Disease” (Neurochemical Research, 2020):

Biological target: T1, human full length recombinant 17β-hydroxysteroid dehydrogenase type 10 protein (His tag) (human, UniProt Q99714 1-261)
T1 construct: 17β-hydroxysteroid dehydrogenase type 10, human, full length recombinant protein; The tetramer was not measured here; The His tag and 'full length' are stated only in the co-immunoprecipitation methods; The SPR reagent is described as human recombinant protein from the same supplier, with no catalogue number; also called 17β-HSD10; ERAB; source: bought: Fitzgerald (Fitzgerald Industries …)
T1 sequence (looked up): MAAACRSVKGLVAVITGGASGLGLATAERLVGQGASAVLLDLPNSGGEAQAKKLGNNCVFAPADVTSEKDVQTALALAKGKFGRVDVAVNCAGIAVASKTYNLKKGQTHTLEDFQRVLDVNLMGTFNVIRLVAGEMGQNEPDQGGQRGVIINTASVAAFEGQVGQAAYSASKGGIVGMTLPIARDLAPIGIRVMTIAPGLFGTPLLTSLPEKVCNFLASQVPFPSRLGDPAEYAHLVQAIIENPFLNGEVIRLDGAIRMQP
Experiment: SPR; cypD captured (response 1.5 nm) on amine-coupled anti-cypD antibody; 17β-HSD10 at 6, 10, 30, 60 and 100 nM injected 10 min, dissociation 15 min; HEPES 10 mM pH 7.4 with 250 µg/ml BSA, 15 mM KCl, 0.1 mM MgCl2; 25 °C, 20 µl/min; reference channel without cypD subtracted; global fit, 1:1 Langmuir model with mass transport
Conditions: both partners purified

B1: human full length cyclophilin D protein (His tag) (enzyme)
chain: not shown
notes: cyclophilin D (mitochondrial peptidyl-prolyl cis-trans isomerase F), human, full length recombinant protein; The His tag and 'full length' are stated only in the co-immunoprecipitation methods; also called cypD; PPIF; source: bought: Fitzgerald (Fitzgerald Industries International), recombinant
- Kd: 0.35 nM
- koff: 5.8e-05 s⁻¹
